Results published in US20190375786A1, “STABLE PEPTIDES AND METHODS OF USE THEREOF” (Fred Hutchinson Cancer Research Center, priority 2016, published 2019).
No end group written: not given here.

Assays:
[1] = Stability in simulated gastric fluid (SGF, pH 1.05), RP-HPLC; format: physicochemical; details: HPLC vs non-reduced peptide
Description: Peptides were first suspended in 500 ul of ddH2O to a stock concentration of 2 mg/ml. Reactions were prepared by adding 12.5 ug of peptide from the stock solution to a 10 mM solution of DTT in PBS and allowed to incubate at room temperature for 30 minutes. Other reactions were prepared with 12.5 μg peptide with or without 500 U/ml pepsin in simulated gastric fluid (SGF; pH 1.05; […] sodium chloride in 0.7% (v/v) hydrochloric acid) and were incubated for 30 minutes at 37.5° C. Some reactions were quenched with a final concentration of 100 mM Tris base and 10 mM dithiothreitol (DTT). Some reactions were performed in all of the above components, including simulated gastric fluid, pepsin, Tris, and DTT (referred to as SPTD). Reversed phase HPLC (RP-HPLC) was run on samples using an Agilent 1260 HPLC equipped with a C-18 Poroshell 120B column. Sample were analyzed by a gradient method with a mobile phase of Solvent A (water with 0.1% TFA) and Solvent B (acetonitrile with 0.1% TFA). Solvent B was ramped up from 5%-45% of the mobile phase over a period of 10 minutes. Peptides were detected at an absorbance of 214 nm and 280 nm.
This example illustrates peptide stability in biological conditions including in the presence of reducing agents, proteases, oxidative conditions, acidic conditions, and simulated gastric fluids. […] Various peptides were suspended in 500 μl of ddH2O at a stock concentration of 2 mg/ml. This was then diluted in accord with the reaction conditions to prevent adverse buffering effects. Reactions were prepared with 12.5 μg peptide dissolved in solution and, in some samples, additionally suspended in a 10 mM solution of DTT, simulated gastric fluid (pH 1.05; […] sodium chloride in 0.7% (v/v) hydrochloric acid), 500 U pepsin (5000 U/ml pepsin), 50 U trypsin (500 U/ml trypsin) with 1 mg/ml inhibitor in PBS, or a combination of any of these conditions. All protease reactions were incubated for 30 min at room temperature and then quenched. Pepsin reactions were quenched by adding Tris base to a final concentration of 0.075 M. Trypsin reactions were quenched by adding excess soybean trypsin inhibitor. RP-HPLC was then run on samples using an Agilent 1260 HPLC equipped with a C-18 Poroshell 120B column. Sample were analyzed by a gradient method with a mobile phase of Solvent A (water with 0.1% TFA) and Solvent B (acetonitrile with 0.1% TFA). Solvent B was ramped up from 5%-45% of the mobile phase over a period of 10 minutes.

trypsin = trypsin (Sus scrofa, UniProt P00761); assay: Trypsin digestion resistance of soluble peptide, RP-HPLC; format: in vitro ADME, porcine; parameters: purchased Sigma Aldrich 6567; details: 50 U trypsin (500 U/ml), 30 min at room temperature, with or without 10 mM DTT; HPLC
trypsin, sequence (P00761 9-231): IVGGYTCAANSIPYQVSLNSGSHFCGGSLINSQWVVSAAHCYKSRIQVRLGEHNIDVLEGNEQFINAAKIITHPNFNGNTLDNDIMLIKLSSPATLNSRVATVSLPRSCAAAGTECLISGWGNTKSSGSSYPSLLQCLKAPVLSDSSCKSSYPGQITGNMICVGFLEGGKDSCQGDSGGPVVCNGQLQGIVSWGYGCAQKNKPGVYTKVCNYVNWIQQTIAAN
Method in brief: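 Read-out was RP-HPLC (C-18, water/acetonitrile with 0.1% TFA, 5-45% over 10 min) of peptide left after trypsin treatment. Digest: 12.5 μg peptide, 500 U/ml porcine trypsin, PBS, 37.5° C for 30 min, stopped by soybean trypsin inhibitor; samples then reduced (10 mM DTT) or left non-reduced.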

pepsin = pepsin (Sus scrofa, UniProt P00791); assay: Pepsin digestion resistance in simulated gastric fluid, RP-HPLC; format: in vitro ADME, porcine; parameters: purchased Sigma Aldrich P7012; details: 500 U pepsin (5000 U/ml) in SGF, 30 min at room temperature, with or without DTT; HPLC
pepsin, sequence (P00791 60-385): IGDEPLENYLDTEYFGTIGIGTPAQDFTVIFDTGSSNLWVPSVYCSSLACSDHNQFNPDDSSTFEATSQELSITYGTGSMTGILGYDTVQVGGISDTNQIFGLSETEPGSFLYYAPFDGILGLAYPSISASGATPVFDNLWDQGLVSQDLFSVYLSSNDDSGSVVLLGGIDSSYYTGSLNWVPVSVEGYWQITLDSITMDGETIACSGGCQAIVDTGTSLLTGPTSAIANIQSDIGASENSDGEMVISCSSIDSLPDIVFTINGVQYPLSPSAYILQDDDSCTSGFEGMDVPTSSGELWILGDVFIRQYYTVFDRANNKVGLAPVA
Method in brief: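 Digestion resistance read by reversed-phase HPLC (C-18, 0.1% TFA, 5–45% acetonitrile over 10 min; 214/280 nm) after 12.5 μg peptide spent 30 min at 37.5 °C in pH 1.05 simulated gastric fluid, with or without 500 U/ml pepsin. Some samples quenched with Tris base and DTT.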

[2] = Resistance to elevated temperature, HPLC; format: physicochemical; details: HPLC
Method in brief: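 Peptides were incubated at room temperature, 70° C or 100° C for one hour in ddH2O; another protocol used 70° C, 75° C or 100° C for one hour in 0.5 mM PBS, then pelleting and analysis of the supernatant. Remaining peptide was measured by C-18 RP-HPLC, 5–45% acetonitrile/0.1% TFA over 10 min.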

[3] = Combined resistance grouping of hitchin peptides (FIG. 27, from Table 2 data); format: physicochemical; details: FIG. 27 grouping of hitchin peptides
Description: As shown by the data in TABLE 2, the tested peptides of the present disclosure show a range of resistance to proteases, reduction, and high temperature. The peptides were classified as high, medium, or low for each condition. […] For example, after a peptide is treated at 100° C., if the HPLC peak of the peptide is mostly absent as compared to HPLC peak of the peptide not treated at 100° C., then the peptide is classified as low or having low resistance to 100° C. After a peptide is treated with reducing conditions, if there is no or very minimal HPLC peak that overlaps with the HPLC peak of the peptide not treated with reducing conditions, then the peptide is classified as low or having low resistance to reducing conditions.
The peptides with the highest resistance data were further analyzed. […] The six peptides that were further tested were peptides comprising the sequences of SEQ ID NO: 27, SEQ ID NO: 24, SEQ ID NO: 6, SEQ ID NO: 10, SEQ ID NO: 12, and SEQ ID NO: 57, which were all hitchins. […] FIG. 27C is a sequence analysis of SEQ ID NO: 27, SEQ ID NO: 24, SEQ ID NO: 6, SEQ ID NO: 10, SEQ ID NO: 12, and SEQ ID NO: 57 from FIG. 27B. FIG. 27C identifies which amino acids are present at each position in SEQ ID NO: 27, SEQ ID NO: 24, SEQ ID NO: 6, SEQ ID NO: 10, SEQ ID NO: 12, and SEQ ID NO: 57. For example, at position one, all peptide sequences comprise a G amino acid residue; at position two, all peptide sequences comprise an S amino acid residue; at position three, all peptide sequences comprise either G, Q, or V amino acid, or null; and at position four, all peptide sequences comprise V, R, or K amino acid, or null. […] SEQ ID NO: 167 and SEQ ID NO: 168 describe sequences of peptides that are particularly resistant to reduction, pepsin, 75° C., and 100° C., which would typically degrade peptides. […] Additionally, SEQ ID NO: 169 describes sequences of peptides that are also particularly resistant to trypsin.

[4] = Resistance to reduction by DTT, RP-HPLC; format: physicochemical; details: 10 mM DTT; HPLC vs non-reduced peptide
Method in brief: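 Peptide (12.5 μg from a 2 mg/ml stock, or 0.015 mM final in PBS) was held 30 min at room temperature with or without 10 mM DTT. Reduced and non-reduced forms were compared by C-18 RP-HPLC using a 5–45% acetonitrile/0.1% TFA gradient over 10 min, with detection at 214 and 280 nm.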

[5] = Resistance to reduction by reduced glutathione (GSH), HPLC; format: physicochemical; details: 10 mM reduced glutathione (GSH); HPLC vs non-reduced peptide
Description: This example describes stability of designed or engineered peptides under reducing conditions. Peptides that are designed or engineered to interact with one or more target proteins in the cell, such as proteins in the nucleus, are exposed to reducing conditions in the cytosolic compartment of cells. Thus, it is advantageous for peptides of this disclosure to display stability in reducing conditions. Stability of peptides of this disclosure was tested in 10 mM DTT and 10 mM GSH. GSH is a more physiologically relevant reducing agent for testing peptide stability in intracellular conditions. An example of a peptide-target protein interaction is a peptide binding to a TEAD protein.

[6] = Intravenous and oral administration of 14C-radiolabeled peptide to mice; plasma, urine, feces by liquid scintillation counting and HPLC; format: in vivo, female Harlan athymic nude mice; details: mouse
Description: This example describes oral and intravenous administration of peptides of this disclosure. […] A peptide of SEQ ID NO: 27 was radiolabeled by the methods described in EXAMPLE 4, and was then administered intravenously or orally to female Harlan athymic nude mice, 6-8 weeks of age. Radiolabeled peptides of SEQ ID NO: 27 (SEQ ID NO: 27-r) was administered intravenously (IV) at a dose of 4.8 μCi/20 nmol. SEQ ID NO: 27-r was administered orally (PO) by oral gavage at a dose of 24 μCi/100 nmol. Mice were euthanized at various time points by CO2 asphyxiation and biological fluids were collected, including blood, urine, and feces. Samples were analyzed by RP-HPLC and liquid scintillation counting to quantify the concentration or dose of radioactivity and/or intact peptide recovered in plasma, urine, and feces. Urine was collected by abdominal palpitation immediately before CO2 asphyxiation. Blood was collected by cardiac puncture immediately after CO2 asphyxiation and centrifuged to separate plasma. Feces were collected either before or after CO2 asphyxiation by palpitation of the colon. Samples were analyzed by HPLC to quantify the concentration or dose of intact peptide recovered in plasma, urine, and feces. For HPLC analysis, urine samples were first diluted at a 1:20 ratio in water and plasma samples were diluted at a 1:5 ratio in water. Feces samples were dissolved in Tris buffer, centrifuged to remove the insoluble fraction, and supernatants were diluted at a 1:1 ratio in water.

[7] = SYPRO Orange melting assay; format: physicochemical; details: heating from 20° C. to 95° C.
Description: Protein secondary structures were assessed using Circular Dichrosim (CD). CD spectra were measured with a Jasco J-720W spectropolarimeter using a 1.0 mm path length cell. Protein samples in 10 mM phosphate buffer (pH=7.4) were at 25-30 μM protein concentration. Samples were analyzed at wavelength ranges of […]. Data were expressed in terms of relative ellipticity [θ]; (mdeg). To determine thermal stability of proteins, samples were subjected to incremental increase in temperature at a ramp of 2° C./min from 20° C. to 95° C. Stability and protein unfolding were monitored at 220 and 215 for α-helix and β-sheet secondary structures, respectively. Data are expressed in terms of relative ellipticity [θ], reported in mdeg. For SEQ ID NO: 43 and its point mutant variants, no changes to the α-helix-dominated structure were observed upon heating up to 95° C. […] Additionally, protein melting temperature (Tm) determination was performed by monitoring protein unfolding using SYPRO Orange dye (Molecular Probes). In brief, 0.1 mg/mL protein sample in 20 μL total volume PBS buffer were mixed with 24, of 10× SYPRO Orange dye. Dye intercalation into the hydrophobic protein core following protein unfolding was assayed using the C1000 Touch Thermal Cycler with CFX96 Deep Well Real-Time System (BioRad). Samples were heated from 20° C. to 95° C. with stepwise increments of 0.5° C. per minute and a 5 sec hold step for every point, followed by fluorescence reading. Tm were calculated by analyzing the derivatives of Relative florescence Units (RFU). FIG. 17D illustrates this SYPRO Orange melting assay of Peptides.

GSGVPINVRSRGSRDSLDPSRRAGMRFGRSINSRSHSTP [SEQ ID NO: 177, reference compound]
stability in simulated gastric fluid / low pH (in words) [1]: stable | resistance to trypsin, Example 7 conditions (in words) (trypsin): degraded | resistance to pepsin, Example 7 conditions (in words) (pepsin): degraded

GSISIGIKCSPSIDLCEGQCRIRKYFTGYCSGDTCHCSG [SEQ ID NO: 3]
resistance to incubation at 70° C. (in words) ([2]; 70° C. for 1 hour): resistant | resistance to incubation at 100° C. (in words) ([2]; 100° C. for 1 hour): various degrees of degradation | combined resistance to reduction, pepsin and elevated temperatures such as 75° C. and 100° C. [3]: not highly resistant

GSNFKVEGACSKPCRKYCIDKGARNGKCINGRCHCYY [SEQ ID NO: 5]
resistance to reduction by DTT (in words) [4]: resistant | combined resistance to reduction, pepsin and elevated temperatures such as 75° C. and 100° C. [3]: not highly resistant

PDEYIERAKECCKKGDIQCCLRYFEESGDPNVMLICLFCP [SEQ ID NO: 122]
resistance to GSH reducing conditions [5]: resistant

SEQ ID NO: 27-r: radiolabeled peptide of SEQ ID NO: 27, by reductive methylation with 14C formaldehyde (GSGVPINVKCRGSRDCLDPCKKAGMRFGKCINSKCHCTP; cysteine pairing not given here; also: radiolabeled by reductive methylation with 14C formaldehyde (sites not given here))
radioactivity in urine ([6]; IV 20 nmol and PO 100 nmol): some radioactivity from the administered peptide was detected | time up to which radioactive signal from the dosed peptide was present in plasma ([6]; IV 20 nmol and PO 100 nmol): at least 50 hours | plasma radioactivity as percent of the administered dose ([6]; IV, 20 nmol (4.8 μCi 14C)): ~10% | nature of radioactively detected peptide in plasma (intact vs fragments) ([6]; PO 100 nmol, tandem HPLC and liquid scintillation counting): nearly all of the radioactively detected peptide in plasma was due to fragments | intact peptide in feces ([6]; PO 100 nmol, tandem HPLC and liquid scintillation counting, 3 and 8 hours): detected | plasma radioactivity as percent of the administered dose ([6]; PO by gavage, 100 nmol (24 μCi 14C)): ~1%

B1: HuScn: Human siderocalin, reference protein in the SYPRO Orange melting assay (protein, UniProt P80188 21-198, looked up)
Neutrophil …: QDSTSDLIPAPPLSKVPLQQNFQDNQFQGKWYVVGLAGNAILREDKDPQKMYATIYELKEDKSYNVTSVLFRKKKCDYWIRTFVPGCQPGEFTLGNIKSYPGLTSYLVRVVSTNYNQHAMVFFKKVSQNREYFKITLYGRTKELTSELKENFIRFSKSLGLPENHIVFPVPIDQCIDG
melting temperature (Tm) [7]: 79 °C
